Source: patent US20110038881A1 (published 2011)

Assays:
HLA-DRB1*0101 [1] = target: HLA-DRB1*0101 (human); test: competition
HLA-DRB1*0301 = HLA-DRB1*0301 (human); test: competition binding
HLA-DRB1*1301 = HLA-DRB1*1301 (human); test: competition binding
HLA-DRB1*1101 = HLA-DRB1*1101 (human); test: competition binding
HLA-DRB3*0101 = HLA-DRB3*0101 (human); test: competition binding
HLA-DRB5*0101 = HLA-DRB5*0101 (human); test: competition binding
HLA-DRB1*0401 = HLA-DRB1*0401 (human); test: competition binding
HLA-DRB1*0101 [2] = target: HLA-DRB1*0101 (human); test: competition binding
HLA-DRB1*0701 = HLA-DRB1*0701 (human); test: competition binding
HLA-DRB1*1501 = HLA-DRB1*1501 (human); test: competition binding
HLA-DRB4*0101 = HLA-DRB4*0101 (human); test: competition binding

IC50 (HLA-DRB1*0101 [1]) [µM]	IC50 (HLA-DRB1*0301) [µM]	IC50 (HLA-DRB1*1301) [µM]	IC50 (HLA-DRB1*1101) [µM]	IC50 (HLA-DRB3*0101) [µM]	IC50 (HLA-DRB5*0101) [µM]	IC50 (HLA-DRB1*0401) [µM]	IC50 (HLA-DRB1*0101 [2]) [µM]	IC50 (HLA-DRB1*0701) [µM]	IC50 (HLA-DRB1*1501) [µM]	IC50 (HLA-DRB4*0101) [µM]	Binder
0.001	–	–	–	–	–	–	–	–	–	–	WRFLRGYHQYAYDGK [peptide p21 (residues 107-121 of HLA-A2)]
–	0.164	> 100	4	0.456	1.55	0.354	0.122	0.786	0.374	2.18	TQFVRFDSDAASQRM [peptide p7 (residues 31-45 of HLA-A2)]
